Results from patent publication CN115368448A (HEFEI TIANGANG IMMUNOLOGY PHARMACEUTICAL CO LTD, dated 2022).

What was measured:
[1] = molecular target: T1, CD33 on human acute myeloid leukaemia HL-60 tumour cells (human, UniProt P20138 18-364); experiment: flow cytometry on HL-60 cells, Alexa-647 anti-human Fc secondary
T1 construct: whole, on cells; also called 人急性髓系细胞白血病HL-60肿瘤细胞; HL-60细胞

[2] = molecular target: T2, CD33蛋白 (SEQ ID NO:29), expressed on transduced cells (Homo sapiens (Human), UniProt P20138 18-364); experiment: flow cytometry on CHO-K1-CD33 cells, Alexa-647 anti-human Fc secondary
T2 construct: The entry includes the signal peptide; also called CHO-K1-CD33细胞; A375-CD33细胞

[3] = molecular target: T3, CD27蛋白 (SEQ ID NO:27), expressed on transduced cells (Homo sapiens (Human), UniProt P26842 20-260); experiment: flow cytometry on CHO-K1-CD27 cells, Alexa-647 anti-human Fc secondary
T3 construct: The entry includes the signal peptide; also called CHO-K1-CD27细胞; Jurkat-NFAT-lucia-CD27细胞
T3 sequence: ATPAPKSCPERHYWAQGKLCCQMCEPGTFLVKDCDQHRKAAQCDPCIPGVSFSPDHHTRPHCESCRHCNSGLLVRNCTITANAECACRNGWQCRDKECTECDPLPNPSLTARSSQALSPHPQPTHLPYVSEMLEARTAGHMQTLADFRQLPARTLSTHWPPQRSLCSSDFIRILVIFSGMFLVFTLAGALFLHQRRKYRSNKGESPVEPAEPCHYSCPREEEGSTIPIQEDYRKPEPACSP

[4] = molecular target: T4, CD27 on human peripheral blood CD8+ T cells (human, UniProt P26842 20-260); experiment: flow cytometry on human PBMC gated on CD8+ T cells, Alexa-647 anti-human Fc secondary
T4 construct: whole, on cells; also called 人外周血T细胞; 人外周血CD8+ T细胞
T4 sequence (looked up): T3 sequence

T2 sequence (P20138 18-364 limits assumed): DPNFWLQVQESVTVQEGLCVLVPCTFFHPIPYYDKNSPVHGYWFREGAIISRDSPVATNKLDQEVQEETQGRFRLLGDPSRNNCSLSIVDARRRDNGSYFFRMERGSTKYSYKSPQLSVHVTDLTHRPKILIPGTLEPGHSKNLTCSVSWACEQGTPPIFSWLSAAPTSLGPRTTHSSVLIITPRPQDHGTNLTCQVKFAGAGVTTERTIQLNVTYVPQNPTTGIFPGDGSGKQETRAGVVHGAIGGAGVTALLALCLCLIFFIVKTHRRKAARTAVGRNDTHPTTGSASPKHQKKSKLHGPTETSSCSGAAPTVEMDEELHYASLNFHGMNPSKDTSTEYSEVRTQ
T1 sequence (P20138 18-364): as the sequence (P20138 18-364 limits assumed) above

binding result [1]: binds | binding result [2]: binds | binding result [3]: binds | binding result [4]: binds
B1: CD27×CD33双特异抗体 (bispecific antibody, human IgG1, kappa, L234A L235A)
chain: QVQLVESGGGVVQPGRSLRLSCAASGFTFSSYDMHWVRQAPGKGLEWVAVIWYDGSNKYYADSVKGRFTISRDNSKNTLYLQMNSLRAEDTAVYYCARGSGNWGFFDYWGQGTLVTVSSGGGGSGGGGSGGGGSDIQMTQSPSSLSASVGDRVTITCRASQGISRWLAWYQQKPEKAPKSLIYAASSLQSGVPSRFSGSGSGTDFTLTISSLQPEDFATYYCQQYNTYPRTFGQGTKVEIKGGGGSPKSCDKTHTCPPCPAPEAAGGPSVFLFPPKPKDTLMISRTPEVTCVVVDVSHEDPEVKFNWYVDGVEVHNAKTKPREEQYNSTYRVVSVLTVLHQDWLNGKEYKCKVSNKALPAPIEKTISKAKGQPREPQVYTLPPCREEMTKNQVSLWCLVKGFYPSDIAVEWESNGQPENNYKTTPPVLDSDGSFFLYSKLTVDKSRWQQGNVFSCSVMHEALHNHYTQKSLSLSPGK
heavy: EVQLVQSGAEVKKPGSSVKVSCKASGYTITDSNIHWVRQAPGQSLEWIGYIYPYNGGTDYNQKFKNRATLTVDNPTNTAYMELSSLRSEDTAFYYCVNGNPWLAYWGQGTLVTVSSASTKGPSVFPLAPSSKSTSGGTAALGCLVKDYFPEPVTVSWNSGALTSGVHTFPAVLQSSGLYSLSSVVTVPSSSLGTQTYICNVNHKPSNTKVDKKVEPKSCDKTHTCPPCPAPEAAGGPSVFLFPPKPKDTLMISRTPEVTCVVVDVSHEDPEVKFNWYVDGVEVHNAKTKPREEQYNSTYRVVSVLTVLHQDWLNGKEYKCKVSNKALPAPIEKTISKAKGQPREPQVCTLPPSREEMTKNQVSLSCAVKGFYPSDIAVEWESNGQPENNYKTTPPVLDSDGSFFLVSKLTVDKSRWQQGNVFSCSVMHEALHNHYTQKSLSLSPGK
light: DIQLTQSPSTLSASVGDRVTITCRASESLDNYGIRFLTWFQQKPGKAPKLLMYAASNQGSGVPSRFSGSGSGTEFTLTISSLQPDDFATYYCQQTKEVPWSFGQGTKVEVKRTVAAPSVFIFPPSDEQLKSGTASVVCLLNNFYPREAKVQWKVDNALQSGNSQESVTEQDSKDSTYSLSSTLTLSKADYEKHKVYACEVTHQGLSSPVTKSFNRGEC
notes: Three-chain knob-into-hole heterodimer (scFv-Fc knob arm against CD27, Fab-Fc hole arm against CD33), human IgG1 L234A/L235A constant regions; made in ExpiCHO cells, purified on Protein A; also called 抗体CD27×CD33; 双特异抗体CD27×CD33
